1 substance from US20190352623A1 can be followed below.

The target in this assay is HaloTag-NLpep86 fusion proteins (internal fusions). As to the kind of experiment: luminescence complementation in transfected HeLa cells.

NLpoly11S had an efficiency of structural complementation relative to N- or C-terminal NLpep86 fusions to HaloTag of 1 to 40%.
